T1: near full-length AR (nAR, aa 36-918) ligated to transcriptional activator VP16 (human, UniProt P10275 36-918)
T1 construct: range 36-918; Mammalian two-hybrid construct, DU145 cells
T1 sequence: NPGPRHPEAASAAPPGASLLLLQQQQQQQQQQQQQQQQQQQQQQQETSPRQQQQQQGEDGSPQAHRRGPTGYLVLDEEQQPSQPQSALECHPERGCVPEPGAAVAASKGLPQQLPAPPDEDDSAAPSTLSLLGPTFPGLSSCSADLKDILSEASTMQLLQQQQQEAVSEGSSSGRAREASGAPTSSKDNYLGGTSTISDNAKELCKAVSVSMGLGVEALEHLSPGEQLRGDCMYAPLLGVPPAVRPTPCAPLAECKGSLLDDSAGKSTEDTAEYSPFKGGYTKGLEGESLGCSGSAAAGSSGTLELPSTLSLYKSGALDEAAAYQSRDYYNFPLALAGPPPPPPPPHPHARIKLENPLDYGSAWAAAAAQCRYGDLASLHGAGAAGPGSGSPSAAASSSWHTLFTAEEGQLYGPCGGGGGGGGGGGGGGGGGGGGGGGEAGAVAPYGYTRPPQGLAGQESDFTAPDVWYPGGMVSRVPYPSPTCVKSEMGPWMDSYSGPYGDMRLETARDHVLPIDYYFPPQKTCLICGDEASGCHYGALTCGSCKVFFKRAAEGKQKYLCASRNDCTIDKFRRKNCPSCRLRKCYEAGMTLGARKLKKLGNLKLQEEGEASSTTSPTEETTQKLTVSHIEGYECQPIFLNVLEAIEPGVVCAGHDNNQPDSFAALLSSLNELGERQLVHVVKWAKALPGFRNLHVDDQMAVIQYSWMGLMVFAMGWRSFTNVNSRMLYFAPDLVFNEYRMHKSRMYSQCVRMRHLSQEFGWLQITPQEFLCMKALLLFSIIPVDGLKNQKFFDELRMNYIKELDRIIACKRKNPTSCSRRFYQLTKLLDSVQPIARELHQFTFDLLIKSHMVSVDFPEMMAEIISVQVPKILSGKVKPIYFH

T2: human androgen receptor (AR), full length (human, UniProt P10275 1-920)
T2 construct: mature; Full-length AR as used in the co-immunoprecipitations; The ARA54 co-IP used anti-His.tag antibodies; also called wtAR; wild type AR
T2 sequence (looked up): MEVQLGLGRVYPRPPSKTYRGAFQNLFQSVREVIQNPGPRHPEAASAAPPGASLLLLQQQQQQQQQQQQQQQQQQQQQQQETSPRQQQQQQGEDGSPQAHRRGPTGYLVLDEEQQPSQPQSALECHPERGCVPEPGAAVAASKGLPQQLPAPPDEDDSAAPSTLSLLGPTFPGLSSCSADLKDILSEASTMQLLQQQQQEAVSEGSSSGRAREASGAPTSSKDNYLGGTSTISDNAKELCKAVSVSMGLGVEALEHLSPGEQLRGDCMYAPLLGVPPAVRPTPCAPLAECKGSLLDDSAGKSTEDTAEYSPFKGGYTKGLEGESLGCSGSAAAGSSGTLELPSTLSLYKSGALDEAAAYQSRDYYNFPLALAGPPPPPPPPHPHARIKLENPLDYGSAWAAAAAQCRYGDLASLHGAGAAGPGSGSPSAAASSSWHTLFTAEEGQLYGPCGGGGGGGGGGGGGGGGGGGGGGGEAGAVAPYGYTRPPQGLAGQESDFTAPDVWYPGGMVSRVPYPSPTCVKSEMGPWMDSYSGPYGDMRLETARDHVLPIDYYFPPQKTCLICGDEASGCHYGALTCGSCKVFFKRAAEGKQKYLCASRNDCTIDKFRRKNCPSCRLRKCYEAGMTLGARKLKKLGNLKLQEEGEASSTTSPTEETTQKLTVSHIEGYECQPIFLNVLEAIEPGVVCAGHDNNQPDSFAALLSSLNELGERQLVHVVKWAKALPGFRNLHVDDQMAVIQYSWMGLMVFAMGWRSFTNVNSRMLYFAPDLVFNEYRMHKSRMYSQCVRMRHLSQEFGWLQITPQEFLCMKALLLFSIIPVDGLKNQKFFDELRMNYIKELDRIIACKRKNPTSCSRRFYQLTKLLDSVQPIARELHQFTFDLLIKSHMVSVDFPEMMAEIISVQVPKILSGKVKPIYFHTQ

B1: VP16 vector (VP16 activation domain alone) (other)
chain: APPTDVSLGDELHLDGEDVAMAHADALDDFDLDMLGDGDSPGPGFTPHDSAPYGALDMADFEFEQMFTDALGIDEYGG
notes: Control of the mammalian two-hybrid assay; also called pCMX-VP16
B2: VP16-ARA55: full-length ARA55 fused to the activation domain of VP16 (other)
chain: MPRSGAPKERPAEPLTPPPSYGHQPTGQSGESSGASGDKDHLYSTVCKPRSPKPAAPAAPPFSSSSGVLGTGLCELDRLLQELNATQFNITDEIMSQFPSSKVASGEQKEDQSEDKKRPSLPSSPSPGLPKASATSATLELDRLMASLPDFRVQNHLPASGPTQPPVVSSTNEGSPSPPEPTAKGSLDTMLGLLQSDLSRRGVPTQAKGLCGSCNKPIAGQVVTALGRAWHPEHFVCGGCSTALGGSSFFEKDGAPFCPECYFERFSPRCGFCNQPIRHKMVTALGTHWHPEHFCCVSCGEPFGDEGFHEREGRPYCRRDFLQLFAPRCQGCQGPILDNYISALSLLWHPDCFVCRECFAPFSGGSFFEHEGRPLCENHFHARRGSLCPTCGLPVTGRCVSALGRRFHPDHFACTFCLRPLTKGSFQERAGKPYCQPCFLKLFG
notes: Mammalian two-hybrid construct, expressed in DU145 cells
B3: PR-LBD (receptor, UniProt P06401 679-933, looked up)
chain: QDIQLIPPLINLLMSIEPDVIYAGHDNTKPDTSSSLLTSLNQLGERQLLSVVKWSKSLPGFRNLHIDDQITLIQYSWMSLMVFGLGWRSYKHVSGQMLYFAPDLILNEQRMKESSFYSLCLTMWQIPQEFVKLQVSQEEFLCMKVLLLLNTIPLEGLRSQTQFEEMRSSYIRELIKAIGLRQKGVVSSSQRFYQLTKLLDNLHDLVKQLHLYCLNTFIQSRALSVEFPEMMSEVIAAQLPKILAGMVKPLLFHKK
notes: domain: LBD; Control in the mammalian two-hybrid assay; the construct is not described
B4: Rb fragment (aa 371-928) ligated to the DBD of GAL4 (other)
chain: MKLLSSIEQACDICRLKKLKCSKEKPKCAKCLKNNWECRYSPKTKRSPLTRAHLTEVESRLERLEQLFLLIFPREDLDMILKMDSLQDIKALLTGLFVQDNVNKDAVTDRLASVETDMPLTLRQHRISATSSSEESSNKGQRQLTVSPHTPVRTVMNTIQQLMMILNSASDQPSENLISYFNNCTVNPKESILKRVKDIGYIFKEKFAKAVGQGCVEIGSQRYKLGVRLYYRVMESMLKSEEERLSIQNFSKLLNDNIFHMSLLACALEVVMATYSRSTSQNLDSGTDLSFPWILNVLNLKAFDFYKVIESFIKAEGNLTREMIKHLERCEHRIMESLAWLSDSPLFDLIKQSKDREGPTDHLESACPLNLPLQNNHTAADMYLSPVRSPKKKGSTTRVNSTANAETQATSAFQTQKPLKSTSLSLFYKKVYRLAYLRLNTLCERLLSEHPELEHIIWTLFQHTLQNEYELMRDRHLDQIMMCSMYGICKVKNIDLKFKIIVTAYKDLPHAVQETFKRVLIKEEEYDSIIVFYNSVFMQRLKTNILQYASTRPPTLSPIPHIPRSPYKFPSSPLRIPGGNIYISPLKSPYKISEGLPTPTKMTPRSRILVSIGESFGTSEKFQKINQMVCNSDRVLKRSAEGSNPPKPLKKLRFDIEGSDEADGSKHLPGESKFQQKLAEMTSTRTRMQKQKMNDSMDTSNKEEK
B5: AR-LBD (aa 590-918) ligated to transcriptional activator VP16 (receptor)
chain: GKQKYLCASRNDCTIDKFRRKNCPSCRLRKCYEAGMTLGARKLKKLGNLKLQEEGEASSTTSPTEETTQKLTVSHIEGYECQPIFLNVLEAIEPGVVCAGHDNNQPDSFAALLSSLNELGERQLVHVVKWAKALPGFRNLHVDDQMAVIQYSWMGLMVFAMGWRSFTNVNSRMLYFAPDLVFNEYRMHKSRMYSQCVRMRHLSQEFGWLQITPQEFLCMKALLLFSIIPVDGLKNQKFFDELRMNYIKELDRIIACKRKNPTSCSRRFYQLTKLLDSVQPIARELHQFTFDLLIKSHMVSVDFPEMMAEIISVQVPKILSGKVKPIYFH
notes: range 590-918; Mammalian two-hybrid construct, DU145 cells; also called pCMX-VP16-AR
B6: C-terminal domain of ARA55 (amino acids 251-444) (other)
chain: EKDGAPFCPECYFERFSPRCGFCNQPIRHKMVTALGTHWHPEHFCCVSCGEPFGDEGFHEREGRPYCRRDFLQLFAPRCQGCQGPILDNYISALSLLWHPDCFVCRECFAPFSGGSFFEHEGRPLCENHFHARRGSLCPTCGLPVTGRCVSALGRRFHPDHFACTFCLRPLTKGSFQERAGKPYCQPCFLKLFG
notes: also called ARA55251-444; C-terminus of ARA55
B7: ARA70 (other, UniProt Q13772 1-614, looked up)
chain: MNTFQDQSGSSSNREPLLRCSDARRDLELAIGGVLRAEQQIKDNLREVKAQIHSCISRHLECLRSREVWLYEQVDLIYQLKEETLQQQAQQLYSLLGQFNCLTHQLECTQNKDLANQVSVCLERLGSLTLKPEDSTVLLFEADTITLRQTITTFGSLKTIQIPEHLMAHASSANIGPFLEKRGCISMPEQKSASGIVAVPFSEWLLGSKPASGYQAPYIPSTDPQDWLTQKQTLENSQTSSRACNFFNNVGGNLKGLENWLLKSEKSSYQKCNSHSTTSSFSIEMEKVGDQELPDQDEMDLSDWLVTPQESHKLRKPENGSRETSEKFKLLFQSYNVNDWLVKTDSCTNCQGNQPKGVEIENLGNLKCLNDHLEAKKPLSTPSMVTEDWLVQNHQDPCKVEEVCRANEPCTSFAECVCDENCEKEALYKWLLKKEGKDKNGMPVEPKPEPEKHKDSLNMWLCPRKEVIEQTKAPKAMTPSRIADSFQVIKNSPLSEWLIRPPYKEGSPKEVPGTEDRAGKQKFKSPMNTSWCSFNTADWVLPGKKMGNLSQLSSGEDKWLLRKKAQEVLLNSPLQEEHNFPPDHYGLPAVCDLFACMQLKVDKEKWLYRTPLQM
notes: also called AR associated protein ARA70

Experiment [1] deals with T3, GAL0AR: hormone binding domain of wtAR fused to the GAL4 DBD (human, UniProt P04386 1-147; P10275 625-920).
T3 construct: range 1-147;domain: hinge and LBD; also called pGAL0-AR (wild-type); GAL4DBD fused to E region of human AR
The experiment is described as follows: mammalian two-hybrid, CAT reporter, DU145 cells.

The target in experiment [2] is T4, GAL0 empty vector (GAL4 DBD alone) (UniProt P04386 1-147).
T4 construct: range 1-147; Control of the mammalian two-hybrid assay; also called pGAL0
Description: mammalian two-hybrid, CAT reporter, DU145 cells.

Experiment [3] concerns the target T1, near full-length AR (nAR, aa 36-918) …. The experiment is described as follows: mammalian two-hybrid, CAT reporter, DU145 cells.
Experiment [4] has the same target. Description: cell-based or functional assay.
The target of experiment [5] is B4. The experiment is described as follows: mammalian two-hybrid, CAT reporter, DU145 cells.
Experiment [6] concerns the target T2, human androgen receptor (AR), full …. Description: assay not given.
Experiment [7] shares this target. Description: cell-based or functional assay.

Take B1: the binding result in experiment [1] is recorded as “no binding”.

As for B2, the binding result in experiment [2] is “no binding”. With B3, the binding result in experiment [3] was “no binding”. B4: the “CAT activity, mammalian two-hybrid system in DU145 cells” value in experiment [4] came out at 3 fold. For B5, the binding result in experiment [5] was “no binding”. With B6, the binding result in experiment [6] is “binds”. Turning to B7, the binding result in experiment [5] is recorded as “no binding”. The “induced CAT activity in mammalian two-hybrid assay” value in experiment [7] came out at 12 fold.

Source of the values: patent US20030198990A1 (UNIVERSITY OF ROCHESTER, published 2003).
